According to patent US20250289849A1, “PEPTIDE TO TREAT ALPHA-SYNUCLEIN AMYLOID BASED DISORDERS” (COUNCIL OF SCIENTIFIC & INDUSTRIAL RESEARCH, priority 2022, published 2025):
Where no end group is shown, it is not given here.

Biological target: T1, human wild-type α-synuclein (Homo sapiens, UniProt P37840)
T1 construct: made in house; host or cells: E. coli Rosetta(DE3), pT7-7 based expression vector
Assay: In vitro fibrillation assay (Thioflavin T fluorescence)
Assay type: biochemical
Conditions: for inhibition of α-synuclein fibrillation (reduction in ThT fluorescence, in words): FIG. 3, α-synuclein 400 μM, equimolar peptide, 37° C., observed upto 6 hr; for increase in α-synuclein fibrillation (fluorescence intensity), compared to penetratin: FIG. 4A, zoomed Y-axis of FIG. 3 data; for normalized ratio of ThT fluorescence amplitude at 5 h versus 0 h, compared with SEQ.ID.-4: FIG. 4B
Description: FIG. 1. […] The α-synuclein fibrillation was monitored using ThioflavinT (ThT), a dye that specifically binds to amyloids. The binding of ThT results in increase of its fluorescence intensity at 482 nm. Purified α-synuclein (400 μM) was incubated at 37° C. with shaking in the presence and absence of equimolar concentration of indicated peptides. Amyloid formation was determined by monitoring ThT fluorescence at different time intervals.
FIG. 3. […] The α-synuclein fibrillation was monitored using ThioflavinT (ThT) dye, which specifically binds to amyloids, with its subsequent increase in fluorescence intensity recorded at 482 nm. The purified α-synuclein (400 μM) was incubated at 37° C. with shaking, in the presence and absence of equimolar concentration of indicated peptides. Amyloid formation was determined by monitoring ThT fluorescence at different time intervals.
FIG. 4A. The inhibition of α-synuclein fibrillation in the presence of different peptides as indicated by SEQ.IDs. The data is same as in FIG. 3A except that only the enhanced (zoomed) Y-axis for α-synuclein fibrillation in the presence of peptides is shown for clarity.
FIG. 4B. The ratio of the amplitude at 5 h versus 0 h for each of the curve was calculated and normalized.
Thioflavin T (ThT) (4 mM) was added to 400 μM of purified α-synuclein with and without Cell penetrating peptides at equimolar concentration in a 96 microwell plate. The plate was incubated at 37° C. with a shaking speed of 900 rpm in linear mode in a multimode plate reader (TECAN infinite M200 PRO). Fluorescence kinetics was measured after every 15 minutes with emission wavelength of 482 nm upon excitation at 442 nm. Each experiment was repeated at least three times.

Row | Substance | inhibition of α-synuclein fibrillation (reduction in ThT fluorescence, in words) | increase in α-synuclein fibrillation (fluorescence intensity), compared to penetratin | normalized ratio of ThT fluorescence amplitude at 5 h versus 0 h, compared with SEQ.ID.-4
1 | SEQ.ID.-6: Cyclic derivative synthesized by introducing Cys residue at N-terminal and C-terminal of SEQ.ID.-4 sequence (CRQIKIWFQNRRMKWKKC; not fully specified (bridges); cysteine pairing not given here) | inhibits α-synuclein fibrillation |  | 
2 | SEQ.ID.-7: shorter truncated version of SEQ.ID.-4, further cyclized (CKIWFQNRRMKC; not fully specified (bridges); also: cyclized, mode not given here) | inhibits α-synuclein fibrillation | did not allow increase in α-synuclein fibrillation | significantly better inhibitor of fibrillation than of SEQ.ID.-4
3 | SEQ.ID.-8: shorter and cyclized derivative of SEQ.ID.-4 with an additional mutation (CKIWFANRRMKC; not fully specified (bridges); also: cyclized, mode not given here) | inhibits α-synuclein fibrillation | did not allow increase in α-synuclein fibrillation | significantly better inhibitor of fibrillation than of SEQ.ID.-4
